The source of these data is patent US20190343962A1 (GENAGON THERAPEUTICS, published 2019).

Assay [1] deals with native CLPTM1 in membrane-permeabilised O-876 cells (Homo sapiens (Human)) (UniProt O96005). The assay is described as follows: flow cytometry on permeabilised O-876 cells; half-maximal binding.
For assay [2] the target is unchanged. The assay is described as follows: flow cytometry on permeabilised O-876 cells, 10x dilution series; half-maximal binding.
Assay [3] has as its target T1, native CLPTM1 in membrane-permeabilised O-876 cells (Homo sapiens (Human), UniProt O96005 2-669).
T1 construct: The protein was stained inside permeabilised cells, not only at the surface; also called native target; 0-876 cells expressing native CLPTM1
T1 sequence: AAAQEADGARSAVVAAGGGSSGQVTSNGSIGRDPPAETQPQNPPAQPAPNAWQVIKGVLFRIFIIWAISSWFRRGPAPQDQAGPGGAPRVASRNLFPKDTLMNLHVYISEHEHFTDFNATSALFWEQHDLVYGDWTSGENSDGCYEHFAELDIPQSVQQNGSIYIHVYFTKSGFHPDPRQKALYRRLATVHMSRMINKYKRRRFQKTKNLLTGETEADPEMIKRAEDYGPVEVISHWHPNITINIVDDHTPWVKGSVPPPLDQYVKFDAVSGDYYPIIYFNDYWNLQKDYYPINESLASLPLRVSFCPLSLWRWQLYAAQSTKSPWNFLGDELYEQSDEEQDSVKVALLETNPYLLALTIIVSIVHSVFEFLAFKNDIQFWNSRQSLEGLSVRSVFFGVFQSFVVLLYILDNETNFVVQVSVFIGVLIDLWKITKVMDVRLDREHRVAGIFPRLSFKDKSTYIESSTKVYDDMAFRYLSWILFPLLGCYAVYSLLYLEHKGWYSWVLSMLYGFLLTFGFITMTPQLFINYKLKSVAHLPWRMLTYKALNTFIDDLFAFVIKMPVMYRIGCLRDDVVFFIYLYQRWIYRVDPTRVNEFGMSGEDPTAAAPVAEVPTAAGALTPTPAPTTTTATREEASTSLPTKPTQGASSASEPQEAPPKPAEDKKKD
Description: flow cytometry on permeabilised O-876 cells; half-maximal binding. On the procedure:
(§1) Affinity of antibodies was determined by finding the half-maximal binding on the native target in a flow cytometry assay. Since the native target is found inside most cells and rarely on the cell surface, the assay was performed using plasma membrane-permeabilised cells, an intra-cellular staining protocol. Using the native target is more applicable when evaluating and comparing various antibodies as it is the true antigen to be bound in a therapeutic setting in vivo. 0-876 cells were permeabilised with BD-fix and permeabilisation buffer (554722 BD-Biosciences). Antibody at various concentrations was incubated with cells for 30 minutes at +4° C., then washed twice with wash buffer (BD-Biosciences 554723). Secondary antibodies a-mouse IgG-PE (Molecular Probes) was used for mouse monoclonal antibodies according to manufacturer's instructions and a-rabbit-IgG-PE (Molecular Probes) for rabbit monoclonal antibody (Abcam ERP8800). Three washes followed and fluorescence intensity in cells was quantified by FACS CantoII in PBS with cells in 2% FCS buffer.
(§2) The assay was performed on O-876 cancer cell line.
In general terms: In flow cytometry, cells or beads pass a laser one at a time.

The target of assay [4] is T1, native CLPTM1 in membrane-permeabilised …. The assay is described as follows: flow cytometry on permeabilised O-876 cells, 10x dilution series; half-maximal binding. The protocol:
CLPTM1 binding in permeabilised 0-876 cells expressing native CLPTM1 was measured in a 10× dilution series. […] The AbCam antibody also retained greater than 50% of its maximum binding at 0.1 μg/ml. The 59D04 antibody retained greater than 50% of its maximum binding at 1 μg/ml, whilst the Santa Cruz antibody had less than 50% of its maximum binding at this level.
as §1, with “Secondary antibodies a-mouse IgG-PE (Molecular Probes) was used for mouse monoclonal antibodies according to manufacturer's instructions and a-rabbit-IgG-PE (Molecular Probes) for rabbit monoclonal antibody (Abcam ERP8800).” left out

The target is the same in assay [5]. Description: flow cytometry on permeabilised O-876 cells, antibody dilution series, PE-labelled secondary antibody. On the procedure:
as §1, §2

Broadly, the EC50 is the concentration giving half of the maximal effect. Regarding “rabbit monoclonal anti-CLPTM1 antibody EPR8800 (RabMab, Abcam)”, the EC50 in assay [1] was < 1 µg/mL; in assay [2], < 0.1 µg/mL.

B1: anti-CLPTM1 mouse monoclonal antibody 7G12 (antibody, IgG1, V domains shown)
VH: QVQLQQSGTELVRPGTSVKVSCKASGYAFTNYLIEWVKQRPGQGLEWIGVINPGSGGTRYNEKFKGKATLTADKSSTTAHMQLSSLTSDDSAVYCARWGGNYSGYAMDYWGQGTSVTVSS
VL: QIVLTQSPVIMSASPGEKVTITCSASSSVSYMHWFQQKPGTSPKLWIYSTSNLASGVPARFSGSGSGTSYSLTISRMEAEDAATYYCQQRSSYPPTFGAGTKL
notes: Mouse monoclonal, IgG1 heavy chain, kappa light chain; The printed VL ends in 'TKL.' and may be incomplete; also called CLPTM1 clone 7G12 (IgG1)
In general, Kd refers to the free concentration of one partner at which half of the binding sites on the other are occupied at equilibrium, for simple one-to-one binding. Higher therefore signals weaker binding. Turning to B1, the results for the EC50 in assay [3] and in assay [4] were < 1 µg/mL and < 0.1 µg/mL, respectively. For the same molecule, the Kd in assay [5] is < 1 nM.

B2: anti-CLPTM1 antibody 59D04 (format in the assay not stated) (antibody, V domains shown)
VH: EVQLVESGGGVVQPGRSLRLSCAASGFTFSTYAMHWVRQAPGKGLEWVAVISYDGTNKYYADSVKGRFTIFRDNSKNTLYLQMNSLRAEDTAVYYCGSGSYWGQGTLVTVSS
VL: QPVLTQPASVSGSPGQSITISCTGTSSDVGGYNYVSWYQQHPGKAPKLMIYEVTNRPSGVSDRFSGSKSGNTASLTISGLQAEDEADYYCSSYKSSNTVVFGGGTKVTVL
notes: Fully human antibody derived by phage display
Consider B2, for which the EC50 in assay [4] is < 1 µg/mL.
